Experimental data taken from patent WO2020146541A2 (dated 2020).
Several values for one entry are separate records, joined by “and”; a condition that tells them apart may be missing. Equal entries are not always repeated. One block for each molecule: values may come before it.

Target: T1, human MSR1 (human, UniProt P21757 1-451)
T1 sequence (looked up): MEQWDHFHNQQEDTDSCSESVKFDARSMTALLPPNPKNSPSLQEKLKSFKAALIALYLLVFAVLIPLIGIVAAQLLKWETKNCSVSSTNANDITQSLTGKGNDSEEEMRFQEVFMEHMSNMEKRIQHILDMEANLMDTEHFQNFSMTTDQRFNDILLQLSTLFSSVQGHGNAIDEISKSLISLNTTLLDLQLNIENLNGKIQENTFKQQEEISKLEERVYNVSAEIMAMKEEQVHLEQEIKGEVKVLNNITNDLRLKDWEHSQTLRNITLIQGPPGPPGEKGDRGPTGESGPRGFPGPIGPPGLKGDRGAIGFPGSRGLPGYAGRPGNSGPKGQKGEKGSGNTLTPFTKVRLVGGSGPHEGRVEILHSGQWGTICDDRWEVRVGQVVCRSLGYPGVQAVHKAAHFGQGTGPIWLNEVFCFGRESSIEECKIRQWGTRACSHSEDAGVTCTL
Assay: cell-based or functional assay

EC50, GR luciferase reporter activity in HEK293/GRLuc/MSR1 cells: > 35 nM | signal to noise (S/N), GR luciferase reporter in HEK293/GRLuc/MSR1 cells: 1.9 to 154
Molecule: isotype control ADCs (antibody)

EC50, GR luciferase reporter activity in HEK293/GRLuc/MSR1 cells: > 50 nM | signal to noise (S/N), GR luciferase reporter in HEK293/GRLuc/MSR1 cells: 3.8 to 148
Molecule: isotype control ncADCs (antibody)

EC50, GR luciferase reporter activity in HEK293/GRLuc/MSR1 cells: 0.636 nM and 3.96 nM
B1: anti-MSR1 (H1H21234N-N297Q) ADCs (antibody, V domains shown)
VH: QVQLQESGPGLVKPSETLSLTCTVTGGSISRNYWSWIRQPPGKGLEWIGYIYYSGSIDYNPSLKSRVTISVDTSKNQFSLKLSSMTAADTAVYYCARDRWNWKYGMDVWGQGTTVIVSS
VL: EIVLTQSPGTLSLSPGERATLSCRASQTVRNNYLAWYHQKPGQAPRLLIYGASSRATGIPDRFSGSGSGTDFTLTISRLEPEDFTVYYCHQYGNSPWTFGQGTKMEIKR
modifications: linker-payload on glutamines Q295 and Q297 (N297Q, EU numbering) of the heavy chain constant region; four DAR
